± gives the uncertainty stated by the source.
Assay: self-splicing fitness, log relative to wild type (ln ratio); higher = more splicing; Tetrahymena group I intron in knt gene, E. coli kanamycin selection, DiMSum; sequences stand for … in CUCUCU…GGAGGGAAAAGUUAUCAGGCAUGCACCUGGUAGCUAGUCUUUAAACCAAUAGAUUGCAUCGGUUUAAAAGGCAAGACCGUCAAAUUGCGGGAAAGGGGUCAACAGCCGUUCAGUACCAAGUCUCAGGGGAAACUUUGAGAUGGCCUUGCAAAGGGUAUGGUAAUAAGCUGACGGACAUGGUCCUAACCACGCAGCCAAGUCCUAAGUCAACAGAUCUUCUGUUGAUAUGGAUGCAGUUCACAGACUAAAUGUCGGUCGGGGAAGAUGUAUUCUUCUCAUAAGAUAUAGUCGGACCUCUCCUUAAUGGGAGCUAGCGGAUGAAGUGAUGCAACACUGGAGCCGCUGGGAACUAAUUUGUAUGCGAAAGUAUAUUGAUUAGUUUUGGAGUACUCGUGGUCG
How it was run: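 DiMSum derived fitness as the error-weighted combination of fold changes across replicates, kanamycin versus no kanamycin, normalised to wild type. E. coli BL21(DE3) held the library, which randomised all eight P1ex-region intron nucleotides within the knt kanamycin-resistance gene on pET-22b(+). Six replicate transformations grew overnight at 37°C or 30°C on LB agar with or without 25 μg/mL kanamycin, also containing 100 μg/mL carbenicillin, 50 μM IPTG and 0.2% rhamnose, and pooled colonies were amplicon-sequenced on an Illumina HiSeq 2500.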

| Sequence | self-splicing fitness (ln) (30 °C) | self-splicing fitness (ln) (37 °C) |
| --- | --- | --- |
| CUCCAGCAAUAUUACGUUGC | -3.98 ± 0.27 | -1.77 ± 0.15 |
| UGUGAGCAAUAUUACGCUGA | -2.24 ± 0.46 | – |
| UAGCAGCAAUAUUACGAUAA | -1.07 ± 0.12 | 0.133 ± 0.13 |
| GCGAAGCAAUAUUACGAUUU | -1.09 ± 0.057 | -0.156 ± 0.075 |
| UUCGAGCAAUAUUACGAGCG | -3.41 ± 0.4 | -1.47 ± 0.2 |
| CGAGAGCAAUAUUACGAGCA | -1.62 ± 0.34 | – |
| AGUUAGCAAUAUUACGUUGU | -4.38 ± 0.37 | -3.36 ± 0.37 |
| AUGUAGCAAUAUUACGAUAG | -2.48 ± 0.19 | -2.67 ± 0.27 |
| GGCAAGCAAUAUUACGUUAU | -0.941 ± 0.065 | -0.757 ± 0.071 |
| CACCAGCAAUAUUACGCAUA | -2.57 ± 0.12 | -1.27 ± 0.1 |
| GGUAAGCAAUAUUACGUAAG | -2.85 ± 0.16 | -2.17 ± 0.17 |
| GUCCAGCAAUAUUACGACAU | -0.524 ± 0.012 | 0.0313 ± 0.032 |
| AUGAAGCAAUAUUACGACGC | 0.112 ± 0.13 | -0.034 ± 0.17 |
| CUGAAGCAAUAUUACGGACU | -2.85 ± 0.22 | -0.495 ± 0.17 |
| UCUGAGCAAUAUUACGGGCG | -1.33 ± 0.17 | -2.56 ± 0.22 |
| GAGGAGCAAUAUUACGCUAG | – | -1.8 ± 0.27 |
| AUCGAGCAAUAUUACGAUCU | -1.58 ± 0.086 | -0.957 ± 0.08 |
| UGAAAGCAAUAUUACGCCAU | -3.11 ± 0.3 | -3.23 ± 0.33 |
| ACGGAGCAAUAUUACGGGGU | -3.65 ± 0.21 | -1.45 ± 0.21 |
| CAGGAGCAAUAUUACGCUAU | -3.39 ± 0.4 | -2.39 ± 0.24 |
| CCAAAGCAAUAUUACGUAUG | -0.512 ± 0.059 | -0.574 ± 0.093 |
| AUGUAGCAAUAUUACGCGGU | -2.3 ± 0.15 | -1.58 ± 0.2 |
| ACUCAGCAAUAUUACGAGUC | -5.21 ± 0.29 | -2.97 ± 0.2 |
| ACACAGCAAUAUUACGUCAA | -2.25 ± 0.19 | -1.99 ± 0.14 |
| GGGAAGCAAUAUUACGGACA | -0.34 ± 0.087 | -0.0303 ± 0.13 |

| Sequence | self-splicing fitness (ln) (30 °C) | self-splicing fitness (ln) (37 °C) |
| --- | --- | --- |
| AGUCAGCAAUAUUACGUUCU | -0.318 ± 0.072 | 0.0939 ± 0.11 |
| UCCGAGCAAUAUUACGGCUC | – | -0.168 ± 0.28 |
| CAAUAGCAAUAUUACGAAAA | -2.39 ± 0.34 | – |
| UCGAAGCAAUAUUACGCGUC | – | -0.484 ± 0.32 |
| UGCCAGCAAUAUUACGAGAA | – | -0.955 ± 0.25 |
| AUCGAGCAAUAUUACGCCGG | -1.43 ± 0.22 | -1.57 ± 0.3 |
| GCUGAGCAAUAUUACGGGAU | -2.39 ± 0.14 | -1.34 ± 0.13 |
| AUGAAGCAAUAUUACGGGAU | -0.638 ± 0.056 | -0.499 ± 0.093 |
| CCUUAGCAAUAUUACGCAUA | -3.22 ± 0.46 | -2.24 ± 0.37 |
| UUCGAGCAAUAUUACGAUGA | -0.824 ± 0.12 | -0.0637 ± 0.1 |
| ACUGAGCAAUAUUACGAUAG | -5.01 ± 0.39 | -1.78 ± 0.17 |
| UCCUAGCAAUAUUACGCCAA | -3.18 ± 0.28 | -2.5 ± 0.25 |
| UCUCAGCAAUAUUACGUAAU | -3.43 ± 0.18 | -2.28 ± 0.18 |
| UGCGAGCAAUAUUACGCCUA | -2.48 ± 0.19 | -0.762 ± 0.16 |
| UGAGAGCAAUAUUACGCACC | -1.54 ± 0.26 | -1.15 ± 0.45 |
| UUUAAGCAAUAUUACGCAUA | -3.17 ± 0.2 | -0.829 ± 0.14 |
| CAAAAGCAAUAUUACGACCG | -0.0202 ± 0.1 | -0.497 ± 0.13 |
| GCCAAGCAAUAUUACGGUCG | -3.19 ± 0.13 | -2.27 ± 0.17 |
| AAACAGCAAUAUUACGGUCA | -0.86 ± 0.089 | 0.186 ± 0.097 |
| CAUCAGCAAUAUUACGCCGA | -2.57 ± 0.32 | -1.79 ± 0.31 |
| UGACAGCAAUAUUACGCGUA | -0.95 ± 0.094 | -0.353 ± 0.089 |
| UUGAAGCAAUAUUACGUCUG | 0.509 ± 0.059 | 0.84 ± 0.081 |
| GGCUAGCAAUAUUACGUCCA | -1.3 ± 0.18 | -1.05 ± 0.2 |
| AAUCAGCAAUAUUACGUGUA | -0.538 ± 0.058 | 0.135 ± 0.068 |
| GGUAAGCAAUAUUACGCAAC | – | -1.35 ± 0.38 |

| Sequence | self-splicing fitness (ln) (30 °C) | self-splicing fitness (ln) (37 °C) |
| --- | --- | --- |
| UGCAAGCAAUAUUACGGCCA | -0.252 ± 0.08 | 1.07 ± 0.14 |
| GUGCAGCAAUAUUACGGGUU | -3.37 ± 0.13 | -0.752 ± 0.095 |
| UUACAGCAAUAUUACGGGGA | -0.473 ± 0.076 | -0.871 ± 0.089 |
| GCCGAGCAAUAUUACGGCAA | -2.4 ± 0.33 | -1.91 ± 0.31 |
| AGACAGCAAUAUUACGGGAG | -3.93 ± 0.16 | -2.89 ± 0.17 |
| UGGAAGCAAUAUUACGUCGU | -2.12 ± 0.18 | -2.19 ± 0.25 |
| CCCAAGCAAUAUUACGUAGU | -3.65 ± 0.2 | -1.93 ± 0.14 |
| UCAGAGCAAUAUUACGAAUC | -2.45 ± 0.42 | – |
| UGGUAGCAAUAUUACGCCGG | -1.3 ± 0.12 | -0.73 ± 0.13 |
| UUCAAGCAAUAUUACGGCUU | -2.58 ± 0.14 | -1.16 ± 0.14 |
| GGAGAGCAAUAUUACGUAAG | -2.82 ± 0.19 | -0.478 ± 0.21 |
| GCGAAGCAAUAUUACGGAGC | -2.69 ± 0.16 | -2.52 ± 0.21 |
| CUAAAGCAAUAUUACGGGAA | -3.28 ± 0.2 | -2.1 ± 0.17 |
| CUUGAGCAAUAUUACGUUCG | -3.19 ± 0.3 | -1.71 ± 0.21 |
| GCGGAGCAAUAUUACGACUC | -2.06 ± 0.25 | -0.372 ± 0.34 |
| CCUAAGCAAUAUUACGGUGC | -2.79 ± 0.28 | -2.19 ± 0.32 |
| GCUGAGCAAUAUUACGGGCC | -2.39 ± 0.32 | -2.27 ± 0.39 |
| CGGCAGCAAUAUUACGUCAC | -3.84 ± 0.25 | -2.81 ± 0.29 |
| GGAAAGCAAUAUUACGUGGU | -3.11 ± 0.18 | -1.9 ± 0.16 |
| AUUAAGCAAUAUUACGAAAG | -1.89 ± 0.15 | -1.23 ± 0.16 |
| CUCUAGCAAUAUUACGGAGA | -1.93 ± 0.47 | -0.951 ± 0.27 |
| UCUCAGCAAUAUUACGGCUA | -0.678 ± 0.29 | -2.19 ± 0.32 |
| AUGAAGCAAUAUUACGCGAA | -1.15 ± 0.087 | -0.0789 ± 0.093 |
| AGUUAGCAAUAUUACGAUUC | -2.04 ± 0.24 | -0.169 ± 0.26 |
| GUCGAGCAAUAUUACGGAUU | -2.03 ± 0.26 | -0.691 ± 0.21 |

| Sequence | self-splicing fitness (ln) (30 °C) | self-splicing fitness (ln) (37 °C) |
| --- | --- | --- |
| UAGAAGCAAUAUUACGAUGG | -1.84 ± 0.097 | -1.32 ± 0.12 |
| AAUUAGCAAUAUUACGAUAC | -1.24 ± 0.36 | -0.477 ± 0.21 |
| AGAGAGCAAUAUUACGGCUG | -0.227 ± 0.24 | -2.26 ± 0.49 |
| UUACAGCAAUAUUACGGGUC | -3.67 ± 0.19 | -2.51 ± 0.15 |
| ACGCAGCAAUAUUACGUUAC | -3.14 ± 0.15 | -3.27 ± 0.23 |
| UACCAGCAAUAUUACGCUUU | -1.86 ± 0.093 | -0.589 ± 0.1 |
| CCCGAGCAAUAUUACGGAUG | -1.67 ± 0.091 | -1.35 ± 0.13 |
| GCAAAGCAAUAUUACGAGCA | -2.04 ± 0.095 | -0.394 ± 0.08 |
| CAUGAGCAAUAUUACGCGGA | -2.6 ± 0.2 | -1.64 ± 0.17 |
| AAUGAGCAAUAUUACGCACA | -2.31 ± 0.29 | -1.38 ± 0.2 |
| CUGCAGCAAUAUUACGCGAU | -1.12 ± 0.09 | -0.167 ± 0.12 |
| CACAAGCAAUAUUACGGGCA | -3.05 ± 0.14 | -1.39 ± 0.099 |
| CACCAGCAAUAUUACGCUCC | -3.91 ± 0.21 | -2.11 ± 0.33 |
| GACUAGCAAUAUUACGAGAA | -1.29 ± 0.27 | -1.53 ± 0.17 |
| CUAAAGCAAUAUUACGUGGC | -2.9 ± 0.12 | -2.05 ± 0.15 |
| CCCAAGCAAUAUUACGGACC | -2.96 ± 0.18 | -2.29 ± 0.26 |
| GAACAGCAAUAUUACGGUAU | -0.973 ± 0.053 | -0.269 ± 0.074 |
| ACCUAGCAAUAUUACGUGAA | -2.1 ± 0.097 | -1.18 ± 0.12 |
| AGCGAGCAAUAUUACGCCGG | -3.03 ± 0.27 | -2.44 ± 0.5 |
| GGAUAGCAAUAUUACGUGGU | -2.33 ± 0.14 | -2.09 ± 0.17 |
| AUCUAGCAAUAUUACGGCUU | -0.0659 ± 0.1 | 0.305 ± 0.12 |
| UUAAAGCAAUAUUACGCACU | -0.0158 ± 0.068 | 0.681 ± 0.095 |
| GGUUAGCAAUAUUACGAGUA | -4.51 ± 0.46 | -1.58 ± 0.2 |

From the supplement of paper PMC7877785
